Where no end group is shown, it is not given here.
T1: MBP-PTH1R ECD-(His)6 fusion protein (UniProt Q03431 29-187)
T1 construct: range 29-187; Expressed in E. coli, disulfide shuffled in vitro; also called MBP-PTH1R ECD-H6; MBP-PTH1R ECD fusion protein
T1 sequence: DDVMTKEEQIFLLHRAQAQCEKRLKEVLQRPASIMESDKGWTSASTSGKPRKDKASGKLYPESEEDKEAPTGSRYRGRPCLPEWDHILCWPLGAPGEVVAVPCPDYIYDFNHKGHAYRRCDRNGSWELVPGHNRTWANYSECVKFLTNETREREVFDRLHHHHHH

T2: PTH1R in cell membranes, G protein-uncoupled conformation (R0) (UniProt Q03431 27-593, limits assumed)
T2 construct: whole, on cells; Cell membranes, not intact cells; R0 state studied by including GTPγS in the reactions; also called G protein-uncoupled receptor
T2 sequence (looked up): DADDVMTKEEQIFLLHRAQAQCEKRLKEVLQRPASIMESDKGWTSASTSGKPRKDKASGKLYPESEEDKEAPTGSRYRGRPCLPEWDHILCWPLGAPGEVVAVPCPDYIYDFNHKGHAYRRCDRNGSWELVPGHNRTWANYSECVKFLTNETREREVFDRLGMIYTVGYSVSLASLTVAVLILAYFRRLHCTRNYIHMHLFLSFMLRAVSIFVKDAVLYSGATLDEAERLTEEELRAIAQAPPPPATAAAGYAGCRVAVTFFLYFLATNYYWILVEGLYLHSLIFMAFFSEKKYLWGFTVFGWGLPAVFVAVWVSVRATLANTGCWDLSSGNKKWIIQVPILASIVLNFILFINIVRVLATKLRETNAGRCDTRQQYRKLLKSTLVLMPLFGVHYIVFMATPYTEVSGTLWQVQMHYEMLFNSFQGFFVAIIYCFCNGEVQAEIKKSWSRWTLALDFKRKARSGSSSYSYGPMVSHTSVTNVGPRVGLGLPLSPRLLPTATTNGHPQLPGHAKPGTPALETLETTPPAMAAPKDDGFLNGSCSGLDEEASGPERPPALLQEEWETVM

T3: hPTH1R transiently expressed in COS-1 cells (human, UniProt Q03431 27-593)
T3 sequence (looked up): T2 sequence (looked up)

B1: PTHrP(12-34)NH2 [L27′K] (peptide)
peptide: GKSIQDLRRRFFLHHKIAEIHTA-NH2
notes: Hybrid PTH/PTHrP peptide in the PTHrP(12-34)NH2 scaffold
B2: PTHrP(12-34)NH2 [L27′K/I28′L] (peptide)
peptide: GKSIQDLRRRFFLHHKLAEIHTA-NH2
notes: as for B1
B3: PTHrP(12-34)NH2 [L27′K/I31′V] (peptide)
peptide: GKSIQDLRRRFFLHHKIAEVHTA-NH2
notes: as for B1
B4: PTHrP(12-34)NH2 [F23′W/L27′K/I28′L/I31′V] (peptide)
peptide: GKSIQDLRRRFWLHHKLAEVHTA-NH2
notes: Quadruple swap peptide in the PTHrP(12-34)NH2 scaffold; also called quadruply mutant PTHrP peptide
B5: PTHrP(12-34)NH2 [I28′L] (peptide)
peptide: GKSIQDLRRRFFLHHLLAEIHTA-NH2
notes: as for B1
B6: PTHrP(12-34)NH2 [F23′W/L27′K] (peptide)
peptide: GKSIQDLRRRFWLHHKIAEIHTA-NH2
notes: as for B1
B7: PTHrP(12-34)NH2 [I31′V] (peptide)
peptide: GKSIQDLRRRFFLHHLIAEVHTA-NH2
notes: as for B1
B8: PTHrP(12-34)NH2 [F23′W] (peptide)
peptide: GKSIQDLRRRFWLHHLIAEIHTA-NH2
notes: as for B1
B9: PTH(15-34)NH2 [W23′F/K27′L] (peptide)
peptide: LNSMERVEFLRKLLQDVHNF-NH2
notes: Hybrid PTH/PTHrP peptide in the PTH(15-34)NH2 scaffold
B10: PTH(15-34)NH2 [W23′F/K27′L/L28′I/V31′I] (peptide)
peptide: LNSMERVEFLRKLIQDIHNF-NH2
notes: Quadruple swap peptide in the PTH(15-34)NH2 scaffold; also called W23′F/K27′L/L28′I/V31′I peptide
B11: PTH(15-34)NH2 [K27′L] (peptide)
peptide: LNSMERVEWLRKLLQDVHNF-NH2
notes: as for B9
B12: PTH(15-34)NH2 [L28′I] (peptide)
peptide: LNSMERVEWLRKKIQDVHNF-NH2
notes: as for B9
B13: PTH(15-34)NH2 [K27′L/V31′I] (peptide)
peptide: LNSMERVEWLRKLLQDIHNF-NH2
notes: as for B9
B14: PTH(15-34)NH2 [V31′I] (peptide)
peptide: LNSMERVEWLRKKLQDIHNF-NH2
notes: as for B9
B15: PTH(15-34)NH2 [W23′F] (peptide)
peptide: LNSMERVEFLRKKLQDVHNF-NH2
notes: as for B9
B16: PTH(15-34)NH2 [K27′L/L28′I] (peptide)
peptide: LNSMERVEWLRKLIQDVHNF-NH2
notes: as for B9

What was measured:
[1] = biological target: T1, MBP-PTH1R ECD-(His)6 fusion protein; test: AlphaScreen single point competition; peptide 20 µM against biotin-PTH(7-34)NH2 (23 nM) on MBP-PTH1R-ECD (23 nM) [panel B]
Procedure: (§1) ECD-peptide binding assays. The binding of peptides to the MBP-PTH1R ECD-H6 fusion protein was assessed using an AlphaScreen assay (Perkin-Elmer). […] The pre-coupling reactions were mixed, un-labeled competitor peptides were added as indicated, and the reactions were incubated 4 to 5 hrs to reach equilibrium. Photon counts were recorded in 384-well optiplates using an Envision 2104 plate reader (Perkin-Elmer). Prism 5.0 software (GraphPad Software, San Diego) was used to fit the data to a fixed-slope dose-response inhibition equation for determination of IC50 values. Real-time analysis of the binding of peptides to the isolated PTH1R ECD using the Octet Red system (ForteBio) was performed as described in below.

[2] = biological target: T1, MBP-PTH1R ECD-(His)6 fusion protein; test: AlphaScreen single point competition; peptide 20 µM against biotin-PTH(7-34)NH2 (23 nM) on MBP-PTH1R-ECD (23 nM) [panel I]
Procedure: as §1

[3] = biological target: T2, PTH1R in cell membranes, G …; test: ratio of IC50 at R0 to IC50 at RG, cell membranes
[4] = biological target: T2, PTH1R in cell membranes, G …; test: competition binding, PTH1R in cell membranes, R0 state (GTPγS), n = 3
[5] = biological target: T4, PTH1R in cell membranes, G protein-coupled conformation (RG) (UniProt Q03431 27-593); test: competition binding, PTH1R in cell membranes, RG state (dominant negative Gαs), n = 3
T4 construct: whole, on cells; Cell membranes, not intact cells; RG state studied by co-expressing the receptor with dominant negative Gαs; also called G protein-coupled receptor

[6] = biological target: T3, hPTH1R transiently expressed in COS-1 …; test: cell-based or functional assay
[7] = biological target: T1, MBP-PTH1R ECD-(His)6 fusion protein; test: AlphaScreen single point competition; peptide 20 µM against biotin-PTH(7-34)NH2 (23 nM) on MBP-PTH1R-ECD (23 nM) [panel A]
Procedure: as §1

Row | binding result [1] | RO/RG [3] | IC50 [4] | IC50 Log M [4] | IC50 [5] | IC50 Log M [5] | binding result [7] | other results | Binder
1 | binds | – | – | – | – | – | – | – | GKSIQDLRRRFWLHHLLAEIHTA-NH2 (also called PTHrP(12-34)NH2 [F23W/I28L]) [F23W/I28L]
2 | binds | – | – | – | – | – | – | – | B1
3 | binds | – | – | – | – | – | – | – | B2
4 | binds | – | – | – | – | – | – | – | B3
5 | binds | – | – | – | – | – | – | – | B4
6 | binds | – | – | – | – | – | – | – | GKSIQDLRRRFWLHHLIAEVHTA-NH2 (also called PTHrP(12-34)NH2 [F23W/I31V]) [F23W/I31V]
7 | binds | – | – | – | – | – | – | – | GKSIQDLRRRFFLHHLLAEVHTA-NH2 (also called PTHrP(12-34)NH2 [I28L/I31V]) [I28L/I31V]
8 | binds | – | – | – | – | – | – | – | B5
9 | – | – | – | – | – | – | – | binding result [2]: binds | GKSIQDLRRRFFLHHLIAEIHAA-NH2 (also called PTHrP(12-34)NH2 [T33A]) [T33A]
10 | binds | – | – | – | – | – | – | – | B6
11 | binds | – | – | – | – | – | – | – | B7
12 | binds | – | – | – | – | – | – | – | B8
13 | – | 36.8 fold | 25 nM | -7.6 Log M | 0.68 nM | -9.3 Log M | – | – | SVSEIQLMHNLGKHLNSMERVEWLRKLLQDIHNF-NH2 [PTH(1-34)NH2 [K27L/V31I]]
14 | – | 45 fold | 4.5 nM | -8.4 Log M | 0.1 nM | -10 Log M | – | – | SVSEIQLMHNLGKHLNSMERVEWLRKKIQDVHNF-NH2 [PTH(1-34)NH2 [L28I]]
15 | – | 110 fold | 34 nM | -7.5 Log M | 0.31 nM | -9.6 Log M | – | – | SVSEIQLMHNLGKHLNSMERVEWLRKKLQDIHNF-NH2 [PTH(1-34)NH2 [V31I]]
16 | – | 11.9 fold | 6.4 nM | -8.2 Log M | 0.54 nM | -9.3 Log M | – | – | SVSEIQLMHNLGKHLNSMERVEWLRKLLQDVHNF-NH2 (also called 07-12-12-07-SBSL) [PTH(1-34)[K27L]NH2]
17 | – | 26.4 fold | 8.7 nM | -8.1 Log M | 0.33 nM | -9.6 Log M | – | – | SVSEIQLMHNLGKHLNSMERVEFLRKLLQDVHNF-NH2 [PTH(1-34)NH2 [W23F/K27L]]

Row | binding result [1] | RO/RG [3] | IC50 [4] | IC50 Log M [4] | IC50 [5] | IC50 Log M [5] | binding result [7] | other results | Binder
18 | – | 68 fold | 53 nM | -7.3 Log M | 0.78 nM | -9.2 Log M | – | – | SVSEIQLMHNLGKHLNSMERVEFLRKLIQDIHNF-NH2 [PTH(1-34)NH2 [W23F/K27L/L28I/V31I]]
19 | – | 386 fold | 81 nM | -7.1 Log M | 0.21 nM | -9.7 Log M | – | EC50, cAMP accumulation dose-response [6]: 0.0415 nM; maximal cAMP level relative to wt peptide [6]: ~80% | SVSEIQLMHNLGKHLNSMERVEFLRKKLQDIHNF-NH2 (also called PTH(W23′F/V31′I)) [PTH(1-34)NH2 [W23′F/V31′I]]
20 | – | 135 fold | 42 nM | -7.4 Log M | 0.31 nM | -9.6 Log M | – | – | SVSEIQLMHNLGKHLNSMERVEWLRKKIQDIHNF-NH2 [PTH(1-34)NH2 [L28I/V31I]]
21 | – | 190 fold | 38 nM | -7.4 Log M | 0.2 nM | -9.7 Log M | – | – | SVSEIQLMHNLGKHLNSMERVEFLRKKIQDVHNF-NH2 [PTH(1-34)NH2 [W23F/L28I]]
22 | – | 59 fold | 13.5 nM | -7.9 Log M | 0.23 nM | -9.7 Log M | – | – | SVSEIQLMHNLGKHLNSMERVEFLRKKLQDVHNF-NH2 [PTH(1-34)NH2 [W23F]]
23 | – | 586 fold | 41 nM | -7.4 Log M | 0.07 nM | -10.1 Log M | – | – | AVSEHQLLHDKGKSIQDLRRRFWLHHKLAEVHTA-NH2 [PTHrP(1-34)NH2 [F23′W/L27′K/I28′L/I31′V]]
24 | – | – | – | – | – | – | binds | – | LNSMERVEWLRKKIQDIHNF-NH2 (also called PTH(15-34)NH2 [L28I/V31I]) [L28I/V31I]
25 | – | – | – | – | – | – | binds | – | LNSMERVEFLRKKLQDIHNF-NH2 (also called PTH(15-34)NH2 [W23F/V31I]) [W23F/V31I]
26 | – | – | – | – | – | – | binds | – | B9
27 | – | – | – | – | – | – | binds | – | B10
28 | – | – | – | – | – | – | binds | – | B11
29 | – | – | – | – | – | – | binds | – | B12
30 | – | – | – | – | – | – | binds | – | B13
31 | – | – | – | – | – | – | binds | – | B14
32 | – | – | – | – | – | – | binds | – | B15
33 | – | – | – | – | – | – | binds | – | LNSMERVEFLRKKIQDVHNF-NH2 (also called PTH(15-34)NH2 [W23F/L28I]) [W23F/L28I]
34 | – | – | – | – | – | – | binds | – | B16

From patent US8563513 (VAN ANDEL RESEARCH INSTITUTE, dated 2013)
